{"source": "paper PMC10316081", "key": {"RagA-RagC(D205K) (human)": {"molecular_target": "RagA-RagC(D205K) (human) (UniProt Q7L523)"}, "RagA-RagC(D201R) (human)": {"molecular_target": "RagA-RagC(D201R) (human) (UniProt Q7L523)"}, "[1]": {"molecular_target": "RagA-RagC(D201R, D205K) (human) (UniProt Q7L523)"}, "RagA-RagC(D201A) (human)": {"molecular_target": "RagA-RagC(D201A) (human) (UniProt Q7L523)"}, "RagA-RagC(D205A) (human)": {"molecular_target": "RagA-RagC(D205A) (human) (UniProt Q7L523)"}, "[2]": {"molecular_target": "RagA-RagC(D201A, D205A) (human) (UniProt Q7L523)"}, "[3]": {"molecular_target": "Rag GTPase heterodimer (RagA-RagC), wild type (human) (UniProt Q7L523)"}, "[4]": {"molecular_target": "Rag GTPase heterodimer (RagA-RagC), wild type (human) (UniProt Q7L523)", "remark": "listed apart in the source"}}, "data": [{"substance": "GATOR1[Depdc5(Y775A)] (from UniProt O75140 1-1603; Q8WTW4 1-380; Q12980 1-569) (complex)", "values": [{"measurement": "kcat/KM of GATOR1[Depdc5(Y775A)]-stimulated multiple turnover GTP hydrolysis, fold decrease against wild-type Rag GTPases (fold decrease)", "setting": "RagA-RagC(D205K) (human)", "value": 22}, {"measurement": "kcat/KM of GATOR1[Depdc5(Y775A)]-stimulated multiple turnover GTP hydrolysis, fold decrease against wild-type Rag GTPases (fold decrease)", "setting": "RagA-RagC(D201R) (human)", "value": 7}, {"measurement": "kcat/KM of GATOR1[Depdc5(Y775A)]-stimulated multiple turnover GTP hydrolysis, fold decrease against wild-type Rag GTPases (fold decrease)", "setting": "[1]", "value": 80}, {"measurement": "kcat/KM of GATOR1[Depdc5(Y775A)]-stimulated multiple turnover GTP hydrolysis, fold decrease against wild-type Rag GTPases (fold decrease)", "setting": "RagA-RagC(D201A) (human)", "value": 2}, {"measurement": "kcat/KM of GATOR1[Depdc5(Y775A)]-stimulated multiple turnover GTP hydrolysis, fold decrease against wild-type Rag GTPases (fold decrease)", "setting": "RagA-RagC(D205A) (human)", "value": 4}, {"measurement": "kcat/KM of GATOR1[Depdc5(Y775A)]-stimulated multiple turnover GTP hydrolysis, fold decrease against wild-type Rag GTPases (fold decrease)", "setting": "[2]", "value": 7}, {"measurement": "kcat of GATOR1-stimulated multiple turnover GTP hydrolysis by the Rag GTPase heterodimer (dual-loaded with GTP)", "setting": "[3]", "value": 0.00183, "unit": "s⁻¹"}, {"measurement": "kcat of GATOR1-stimulated single turnover GTP hydrolysis by the Rag GTPase heterodimer (singly loaded with GTP)", "setting": "[4]", "value": 0.000267, "unit": "s⁻¹"}]}, {"substance": "GATOR1[Depdc5(Y775A, R1407D)] (from UniProt O75140 1-1603; Q8WTW4 1-380; Q12980 1-569) (complex)", "values": [{"measurement": "KM of GATOR1-stimulated multiple turnover GTP hydrolysis, fold increase against GATOR1[Depdc5(Y775A)] (fold increase)", "setting": "[3]", "value": 8}, {"measurement": "kcat of GATOR1-stimulated multiple turnover GTP hydrolysis, fold decrease against GATOR1[Depdc5(Y775A)] (fold decrease)", "setting": "[3]", "value": 8}, {"measurement": "kcat/KM of GATOR1-stimulated multiple turnover GTP hydrolysis, fold decrease against GATOR1[Depdc5(Y775A)] (fold decrease)", "setting": "[3]", "value": 64}, {"measurement": "kcat of GATOR1-stimulated single turnover GTP hydrolysis by the Rag GTPase heterodimer (singly loaded with GTP)", "setting": "[4]", "value": 0.00015, "unit": "s⁻¹"}]}]}
